B1: FIYM19 (peptide)
peptide: K[F(-Me)]EKEKMNCKWMT
modifications: reading uncertain; also: printed as KF(-Me)EKEKMNCKWMT
B2: FIYM44 (peptide)
peptide: KFEKEKMNC(Me)KWMT
B3: FIYM51 (peptide)
peptide: KYEKEKMNCKWMT
B4: FIYM52 (peptide)
peptide: DFEKEKMNCKWMT
B5: FIYM31 (peptide)
peptide: RFEKEKMMCKWMT
B6: FIYM15 (peptide)
peptide: Ace-KFEKEKMNCKWMT-{Me′}
B7: FIYM53 (peptide)
peptide: EFEKEKMNCKWMT
B8: FIYM50 (peptide)
peptide: KYEKEKMNAKWDT
B9: FIYM21 (peptide)
peptide: 5FAM-KFEKEKMNCKWMT

Non-standard residues stand in square brackets, D forms with d. Residues, ends and D or L forms follow the SMILES beside them. Primed or numbered codes have the meaning given here. No end group written: not given here. *: point of attachment. 5FAM = O=C1OC2(c3ccc(O)cc3Oc3cc(O)ccc32)c2ccc(C(=O)*)cc21; Me′ = methyl group capping the C-terminus; F(-Me) = not defined here; Mob = COc1ccc(C*)cc1; Bn = c1ccc(C*)cc1

One experiment has as its target T1, interactions between Talin 1 (TLN1) and integrin subunit beta (ITGB) (Homo sapiens, UniProt Q9Y490).
T1 construct: LgBit or SmBit (N-terminal of the HaloTag); made in house
Nature of the experiment: Flip-flop detection mechanism on DNA origami (LgBit/SmBit luminescence), inhibitor screening. The settings on record: inhibition of binding between TLN1 and ITBG. The format is biochemical. From the text:
Two types of systems, i.e., flip-flop detection mechanism and switch detection mechanism, were constructed by using HaloTag, LgBit, SmBit, TLN1, and ITGB. Each of TLN1 (Uniprot ID: Q9Y490) and ITGB1 (Uniprot ID: P05556) was cloned from the registered genetic information. HaloTAg has three chemically modifiable locations at a ligand recognition site, C-terminus, and N-terminus. In this Example, a single-stranded DNA for attaching to DNA origami was connected to a ligand recognition site of HaloTag, a subunit of an interaction complex was connected to the C-terminus, and LgBit or SmBit was connected to the N-terminus.
The outline of the system is disclosed in Figure 23. When TLN1 and ITBG are in a bound state in this system, LgBit and SmBit are at spatially separated positions from each other, with a HaloTag interposed therebetween. In this regard, if an inhibitor is added, complex formation of TLN1 and ITBG is inhibited. As a result, a LgBit-SmBit complex can be formed, and a luminescence reaction progresses.
As a candidate drug for inhibiting the binding between TLN1 and ITBG, peptide inhibitors consisting of 13 amino acids prepared by modifying amino acids in an intracellular region of ITGB3 have been designed (Shen B. et al., A directional switch of integrin signaling and a new antithrombotic strategy. Nature 503, 131-135 (2013)). IC50 values for the peptides shown in the following table were calculated by using the flip-flop detection mechanism described in Example 11 for optimizing the sequence. In this manner, the effect of a large number of compounds on the interaction with a target protein can be readily analyzed in the system of the present disclosed.
With `COc1ccc(CSC[C@H](NC(=O)[C@H](CC(N)=O)NC(=O)[C@H](CCSC)NC(=O)[C@H](CCCCN)NC(=O)[C@H](CCC(=O)O)NC(=O)[C@H](CCCCN)NC(=O)[C@H](CCC(=O)O)NC(=O)[C@H](Cc2ccccc2)NC(=O)[C@@H](N)CCCCN)C(=O)N[C@@H](CCCCN)C(=O)N[C@@H](Cc2c[nH]c3ccccc23)C(=O)N[C@@H](CCSC)C(=O)N[C@H](C(=O)O)[C@@H](C)O)cc1` [FIYM42] (H-KFEKEKMNC(Mob)KWMT-OH), the Inhibitory activity result was “no inhibition”.

Regarding `CSCC[C@H](NC(=O)[C@H](CCCCN)NC(=O)[C@H](CCC(=O)O)NC(=O)[C@H](CCCCN)NC(=O)[C@H](CCC(=O)O)NC(=O)[C@H](Cc1ccccc1)NC(=O)[C@@H](N)CCCCN)C(=O)N[C@@H](CC(N)=O)C(=O)N[C@@H](CSCc1ccccc1)C(=O)N[C@@H](CCCCN)C(=O)N[C@@H](Cc1c[nH]c2ccccc12)C(=O)N[C@@H](CCSC)C(=O)N[C@H](C(=O)O)[C@@H](C)O` [FIYM43] (H-KFEKEKMNC(Bn)KWMT-OH), the Inhibitory activity result was “no inhibition”. On the same count and under the same terms, to `CSCC[C@H](NC(=O)[C@H](CCCCN)NC(=O)[C@H](CCC(=O)O)NC(=O)[C@H](CCCCN)NC(=O)[C@H](CCC(=O)O)NC(=O)[C@H](Cc1ccccc1)NC(=O)[C@H](CCCCN)NC(=O)[C@@H]1CCCN1)C(=O)N[C@@H](CC(N)=O)C(=O)N[C@@H](CS)C(=O)N[C@@H](CCCCN)C(=O)N[C@@H](Cc1c[nH]c2ccccc12)C(=O)N[C@@H](CCSC)C(=O)N[C@H](C(=O)O)[C@@H](C)O` [FIYM54] (H-PKFEKEKMNCKWMT-OH) belongs “no inhibition”. The same measure, in the same setting: next, `CSCC[C@H](NC(=O)[C@H](CCCCN)NC(=O)[C@H](CCC(=O)O)NC(=O)[C@H](CCCCN)NC(=O)[C@H](CCC(=O)O)NC(=O)[C@H](Cc1ccccc1)NC(=O)[C@H](CCCCN)NC(=O)[C@@H]1CCCN1C(=O)CN)C(=O)N[C@@H](CC(N)=O)C(=O)N[C@@H](CS)C(=O)N[C@@H](CCCCN)C(=O)N[C@@H](Cc1c[nH]c2ccccc12)C(=O)N[C@@H](CCSC)C(=O)N[C@H](C(=O)O)[C@@H](C)O` [FIYM55] (H-GPKFEKEKMNCKWMT-OH): “no inhibition”; `CC[C@H](C)[C@H](NC(=O)[C@@H]1CCCN1C(=O)[C@H](CC(N)=O)NC(=O)[C@H](CCC(=O)O)NC(=O)[C@H](CCC(N)=O)NC(=O)[C@@H](NC(=O)[C@@H](NC(=O)[C@H](CCCNC(=N)N)NC(=O)[C@H](Cc1c[nH]c2ccccc12)NC(=O)[C@H](CCCCN)NC(=O)[C@H](CS)NC(=O)[C@H](CC(N)=O)NC(=O)[C@H](CCSC)NC(=O)[C@H](CCCCN)NC(=O)[C@H](CCC(=O)O)NC(=O)[C@H](CCCCN)NC(=O)[C@H](CCC(=O)O)NC(=O)[C@H](Cc1ccccc1)NC(=O)[C@@H](N)CCCCN)C(C)C)[C@@H](C)O)C(=O)N[C@@H](Cc1ccc(O)cc1)C(=O)N[C@@H](CCCCN)C(=O)O` [FIYM56] (H-KFEKEKMNCKWRVTQENPIYK-OH): “no inhibition”.

With “KF(-CI)EKEKMNCKWMT (KFEKEKMNCKWMT) [FIYM18]”, the Inhibitory activity result is on record as “no inhibition”.

Still in this experiment, the particulars now being: inhibition of binding between TLN1 and ITBG, read-out: Inhibitory activity.
In the case of `C[C@H](NC(=O)[C@H](CCCNC(=N)N)NC(=O)[C@H](C)NC(=O)[C@H](CCCNC(=N)N)NC(=O)[C@H](CCC(=O)O)NC(=O)[C@H](CCC(=O)O)NC(=O)[C@H](CCC(=O)O)NC(=O)[C@H](Cc1ccccc1)NC(=O)[C@@H](N)CCCCN)C(=O)N[C@@H](CCCCN)C(=O)N[C@@H](Cc1c[nH]c2ccccc12)C(=O)N[C@@H](CC(=O)O)C(=O)N[C@H](C(=O)O)[C@@H](C)O` [FIYM45] (H-KFEEERARAKWDT-OH), the IC50 was found to be 314 µM.

For the molecule `CSCC[C@H](NC(=O)[C@H](C)NC(=O)[C@H](CCCCN)NC(=O)[C@H](CS)NC(=O)[C@H](CC(N)=O)NC(=O)[C@H](CCSC)NC(=O)[C@H](CCCCN)NC(=O)[C@H](CCC(=O)O)NC(=O)[C@H](CCCCN)NC(=O)[C@H](CCC(=O)O)NC(=O)[C@H](C)NC(=O)[C@@H](N)CCCCN)C(=O)N[C@H](C(=O)O)[C@@H](C)O` [FIYM46] (H-KAEKEKMNCKAMT-OH), the IC50 is 474 µM. Regarding “Ace-KFEKEKMNCKWMT-Me (Ace-KFEKEKMNCKWMT-{Me′}) [FIYM15]”, the IC50 came to 41.2 µM. As for “KF(-Me)EKEKMNCKWMT (KFEKEKMNCKWMT) [FIYM19]”, the IC50 amounted to 212 µM.

The same experiment, now with this note: inhibition of binding between TLN1 and ITBG, µM, read-out: Inhibitory activity.
For the molecule `CSCC[C@H](NC(=O)[C@H](CCCCN)NC(=O)[C@H](CCC(=O)O)NC(=O)[C@H](CCCCN)NC(=O)[C@H](CCC(=O)O)NC(=O)[C@H](Cc1ccccc1)NC(=O)[C@@H](N)CCSC)C(=O)N[C@@H](CC(N)=O)C(=O)N[C@@H](CS)C(=O)N[C@@H](CCCCN)C(=O)N[C@@H](Cc1c[nH]c2ccccc12)C(=O)N[C@@H](CCSC)C(=O)N[C@H](C(=O)O)[C@@H](C)O` [FIYM47] (H-MFEKEKMNCKWMT-OH), the IC50 was determined as 71.4 µM. The same measure, in the same setting: to `CSCC[C@H](NC(=O)[C@H](CCCCN)NC(=O)[C@H](CCC(=O)O)NC(=O)[C@H](CCCCN)NC(=O)[C@H](CCC(=O)O)NC(=O)[C@H](Cc1ccccc1)NC(=O)[C@H](CCCCN)NC(=O)[C@@H](N)CCSC)C(=O)N[C@@H](CC(N)=O)C(=O)N[C@@H](CS)C(=O)N[C@@H](CCCCN)C(=O)N[C@@H](Cc1c[nH]c2ccccc12)C(=O)N[C@@H](CCSC)C(=O)N[C@H](C(=O)O)[C@@H](C)O` [FIYM48] (H-MKFEKEKMNCKWMT-OH) belongs 292 µM; to `CSCC[C@H](NC(=O)[C@H](CCCCN)NC(=O)[C@H](CCC(=O)O)NC(=O)[C@H](CCCCN)NC(=O)[C@H](CCC(=O)O)NC(=O)[C@H](Cc1ccccc1)NC(=O)[C@H](CCCCN)NC(=O)[C@H](Cc1c[nH]cn1)NC(=O)[C@H](Cc1c[nH]cn1)NC(=O)[C@H](Cc1c[nH]cn1)NC(=O)[C@H](Cc1c[nH]cn1)NC(=O)[C@H](Cc1c[nH]cn1)NC(=O)[C@H](Cc1c[nH]cn1)NC(=O)[C@@H](N)CCSC)C(=O)N[C@@H](CC(N)=O)C(=O)N[C@@H](CS)C(=O)N[C@@H](CCCCN)C(=O)N[C@@H](Cc1c[nH]c2ccccc12)C(=O)N[C@@H](CCSC)C(=O)N[C@H](C(=O)O)[C@@H](C)O` [FIYM49] (H-MHHHHHHKFEKEKMNCKWMT-OH), 107 µM.

In another experiment the target is Talin 1 (TLN1) (UniProt Q9Y490). As to the kind of experiment: flip-flop luminescence detection on DNA origami, inhibition of the TLN1-ITGB complex.
Talin 1 (TLN1), sequence (Q9Y490 1-405): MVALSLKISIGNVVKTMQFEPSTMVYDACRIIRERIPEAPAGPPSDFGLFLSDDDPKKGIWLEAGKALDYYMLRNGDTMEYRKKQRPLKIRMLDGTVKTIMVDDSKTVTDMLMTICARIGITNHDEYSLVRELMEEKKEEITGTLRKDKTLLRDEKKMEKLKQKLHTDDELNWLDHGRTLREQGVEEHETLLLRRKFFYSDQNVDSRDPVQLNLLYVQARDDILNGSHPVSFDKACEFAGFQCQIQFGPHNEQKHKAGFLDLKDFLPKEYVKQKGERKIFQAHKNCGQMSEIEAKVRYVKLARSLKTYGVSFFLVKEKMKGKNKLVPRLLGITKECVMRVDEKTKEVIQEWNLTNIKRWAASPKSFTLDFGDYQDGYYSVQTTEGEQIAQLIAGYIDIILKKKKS
Conditions: not given
In turn, B1 registered an IC50 of 212 µM. In turn, B2 showed an IC50 of 1070 µM. Still for that read-out and setting: to B3 belongs 1830 µM; to B4, 8130 µM; to B5, 1040 µM.

Molecule B6 returned an IC50 of 41.2 µM. Same read-out and setting: to B7 belongs 42000 µM; to B8, 1860 µM.

Consider B9, for which the IC50 is 38.1 µM.

The record behind these values is patent EP4793641A1, “NOVEL METHOD FOR ANALYZING BIOMOLECULAR INTERACTIONS” (Kyoto University, priority 2023, dated 2025).
